# From the nanobody polyreactivity screen of Harvey et al. (2022)
# Assay: yeast display, Sf9 membrane polyspecificity reagent, FACS + sequencing; frameworks hold sequencing errors
# Method in brief: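 Synthetic nanobody libraries on Saccharomyces cerevisiae BJ5465 were galactose-induced for 36–48 hours, stained 1 hour at 4 °C with 10% biotinylated, detergent-solubilized Sf9 membrane reagent and enriched on streptavidin microbeads. FACS then separated cells into low and high (top ~1%) gates by anti-HA (expression) and streptavidin (reagent binding) fluorescence. Genes were colony-PCR amplified, MiSeq 2 × 250 sequenced and CDR-length filtered. A clone's polyreactivity label is that of its gate of origin.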
row,Sequence,polyreactivity (PSR sort gate)
1,QVQLVESGGGLVQAGGSLRLSCAASGRILTSNAMGWYRQAPGKERELVAAISWSGGSTYYADSVKGSFTISRDNAKNTVYLQMNSLKPDDSAVYYCAAPFTTTFDYSGQGTQVTVSS,low polyreactivity
2,QVQLVESGGGLVQAGGSLRLSCAASGITFVGYAMGWYRQAPGKERELVAVINTSSSTYYADSVKGRFTISRDNAKNTVYLQMNSLKPVDTAVYYCADYAYYRYFIPAVLYDYWGQGTQVTVSS,low polyreactivity
3,QVQLVESGGGLVQAGGSLRLSCAASGFTFKRYAMGWYRQAPGKERELVAAISYSGGSTYYADSVKGRFTISRDNAKNTVYLQMNSLKPEDTAVYYCAALPGRRLWTYDYWGQGTQVTVSS,high polyreactivity
4,QVHLVESGGGLVQAGGSLRLSCAASGSIFSGNTMGWYRQAPGKERELVAAISGGGSTNYADSVKGRFTISRDNAKNTVYLQMNSLKPEDTAVYYCAKDWSLGASRMDYWGQGTQVTVSS,low polyreactivity
5,QVQLVESGGGLVQAGGSLRLSCAASGTYYLYAMGWYRQAPRKERELVAAISGSGSTNYADSVKGRFTISRDNAKNTVYLQMNSLKPEDTAVYYCAAYQRYVSVTGARYEYDYWGQGTQVTVSS,low polyreactivity
6,LVQLQECGGGLVQAGGSLRLSCAASGNIFDADIMGWYRQAPCKERELVASVTDGGSTNYADSVKGRFTISRDNAKNTVYLQMNSLKPEDTAVYYCEAIVYPDILTYFDYDYDYFYWGQGTQVTVGS,low polyreactivity
7,QVQLVESGGGLVQAGGSLRLSCAASGSIFGTNAMGWYRQAPGKERELVATITSAGSTYYADSVKGRFTISRDNAKNTVYLQMNSLKPEDTAVYYCARQATGYVYREYDYWGQGTQVTVSS,low polyreactivity
8,QVQLVESGGGLVQPGGSLRLSCAASGRIQRYYAMGWYRQAPGKERELVAVITSSDGSTYYADSVKGRFTISRDNAKNTVYLQMNRLKPEDTAVYYCAAAPLWRLASWWDPYRRYDYWGQGTLVTVSS,low polyreactivity
9,QVQLVESGGGLVQAGGSLRLSCAASGFTFRYYAMGWYSQAPGKERELVAAITRSGGSTYYADSVKGRFTISRDNAKNTVYLQMNSLKPDDTGVYYCAARGHYRDGDEYWGQGTEVTVSS,high polyreactivity
10,QVQLVESGGGLVQAGGSLRLSCAASGSIFVVYAMGWYRQAPGKERELVAAISWGIGSTYYADSVKGRFTISRDNAKYTVYLQMNSLKPEDTAVYYCAAETDIVLYDYWGQGTQVTVSS,low polyreactivity
11,QVQLVESGGGLVQAGGSLRLSCAASGRTFTGYVMGWYRQAPGKDRELVAGSSRRGGRTYYADSVKGRYTISRDNAKNTVYLQMNSLKPEDTEVYYCAAAVTSSDPYDYWGQGTQVTVSS,high polyreactivity
12,QVQLVESGGGLVQAGGSLRLSCAASGRTFGYNAMGWYRQAPGKERELVAAITIGGSTNYADSVNGRFTISRDNAKNTVYLQMNSLKPEDTAVYYCAAYDTLLYWVEFYYWGQGTQVTVSS,low polyreactivity
13,QVHLVESGGGLVQAGGSLRLTCAASGSIFLGHAMGWYRQAPGNERDLVAAISSITGRTYYADSVKGRFTISRDNAKNNVYLHMNSLKPEDTAVYYCNKVSRSFIVNTDDYWGQGTQVTVSS,high polyreactivity
14,QVQLVESGGGLVQAGGRLRLSCAASGRIFRGYAMGWYRQAPGKERELVAGITWGGGRTYYADSVKGRFTISRDNAKNTVYLQLNSLKPEDTAVYYCAAYYSQDSRRKYDYWGQGTQVTVSS,high polyreactivity
15,QVQLVESGGGLVQAGGSLRLSCAASGSTFTGYTMGWYRQAPGKEREFVAAISSRGGSTYYADSVKGRFTISRDNAKNTVFLQMNSLKPEETAVYYCAAKVWARVDGRQFRMEYWGQGTQVTVSS,high polyreactivity
16,QVQLVESGGGLVQAGGSLRLSCAASGRTFYLYAMGWYRQAPGKERELVAAITSAGSTNYADSVKGRFTISRDNAKNTVYLQMNSLKPEDSAVYYCNAYKRGYLYRYNYWGQGTQVTLSS,high polyreactivity
17,QVQLVESGGGLVQAGGSLRLSCAASGRIFGGYTMGWYRQAPGNERELVAAINSGGSTYYADSVKGRFTISRDNAKITVYLQMNSLKPEDTAVYYCAKVRSYFGKYGYGYWGQGTQVTVSS,high polyreactivity
18,QVQLVESGGGLVQAGGSLRLSCAASGRIIGYYAKGWYRQAPGKERELVAAISYSGGATYYADSVKGRFTISRDNEMNTVYLQSKSLKPEVTAVYYCAAQGRWPQRYGYWGQGTQVTVSS,high polyreactivity
19,QGQLVESGGGLVQAGGSLRLICAASGFIFQANALGWYRQAPGQERELVAAITSSVGRTYYADSVKGRFTISRDNAKNTVYLQMNSLKPEYTEVYYCNAGGHLEMNYWGQGTQVTVSS,low polyreactivity
20,QVQLVESGGGLVQAGGSLRLSCAASGITFAYYAMGWYRQAPGTEREWVAAISRSGGGTYYADSVKGRFTISRDNAKNTVYLQMNTLIPEDTAVYYCNKDYPYYNSGPWAYKFDYCGQGTQVTVSS,high polyreactivity
21,QVQLVESGGGLVQAGGSLRLSCAASGSIFKSNAMGWYRQAPGKERELVAAISNGGITNYADSVKGRFTISRDNAKNSVYLQMNSLKPEDTAVYYCATSDVREIWVDYWGQGTQVTVSS,low polyreactivity
22,QVQLVESGGGLVQAGGRLRLSCAASGFTFTPYAMGWYRQAPGTERELVAAISWGDGSTYYADSVKGRFTISRDNAKNTVYLQMNSLKPEDTAVYYCAAYRGPRIYRYDYWGQGTQVTVSS,high polyreactivity

row,Sequence,polyreactivity (PSR sort gate)
1,QVQLVESGGGLVQAGGSLRLSCAASGFIFNTMGWYRQAPGKERELVATISWSDGSTYYADSVKGRFTISRDNAKNTVYLQMNSLKPEDTAVYYCAADSRPWGSSMDSWGQGTQVTVSS,low polyreactivity
2,QVQLVESGGGLVQAGGSLRLSCAASGSTLVYNDMGWYRQAPGKEREFVAAIRSNDGSTYYADSVKGRFTISRDNAKNTVYLQMNSLKPEDTAVYYCNKDVWDGYDWPEFDYWGQGTQVTVSS,low polyreactivity
3,QVQLVESGGGLVQAGGSLRLSCAASGSTLSYYAMGWYRQAPGKERELVAAISFSGGITYYADSVKGRFTISRDNAKNTVYLQMNSLKPEDTAVYYCNAEYQVYRAYVIWYDYWGQGTQVTVSS,high polyreactivity
4,QVQLVESGGGLVQAGGSLRLSCAASGFIFSSYAMGWYRQAPGKEREFVASISASGGTTYYADSVKGRFTISRDNAKNTVYLQMNSLKPEDTAVYYCAAPWLDAEDYWGQGTQVTVSS,high polyreactivity
5,QVQLVVSGGGLVQAGGSLRLSCAASGSIFGENAMGWYRQAPGKERELVAAITWSGASTYYADSVKGRFTISRDNAKNTVFLKMNSLKPEDTAVYYCNDDRFVRFSTFDYWGQGTQVTVSS,high polyreactivity
6,QVQLVESGGGLVQAGGSLRLSCAASGIIFCRYAMGWYRQAPGKERELVATITWRGGSTYYADSVKGRFTISRDNAKNTVYLQMNSLKPEDTAVYYCAADTRQSRSFRARDYWGQGTQVTVSS,low polyreactivity
7,QVQLVESGGGLVQAGGSLRLSCAASGRIFPRYAMGWYTQAPGKERELVAAITTGGSTYADSVKGRFTISRDNAKNTVYLQMNSLKPEDTAVYYCGVDGYVAFSPDRNNYWGQGTQVTVSA,low polyreactivity
8,QVQLVDSVVGLVQAGGSLRLSFAASGYTYHYYAMGWYRQAPGKETELVAAISGSGSSTYYADSVKGRFTISRDNAKNTVYLQMNSLKPEDTAVYYCNARGHYPRARFGYKSGSDRYWGQGTQVTVSS,high polyreactivity
9,QVQLVESGGGLVQAGGSLRLSCAASGRIFDYYAMGWYRQAPGKERELVAAITSGGTTTYYADSVKGRFTNSRDNAKNTVYLQLNSLKPEDTAVYFCAKYPYHIYHTDGDYWGQGTQVTVSS,low polyreactivity
10,QVQLVESGGGLVQAGGSLRLSCAASGSTFIPNAMGWYRQAPGKERELVAAITYRGGRTYYADSVKGRFTISRDNAKYTVYLQLNSLKPEDTAVYYCAADFWYNQVRFYYWGQGTQVTVSS,high polyreactivity
11,QVQLQESGGGLVQAGGSLRLSCAASGSIFKVVDMGLYRQEPAKEREFVATIGEGGNTYYADSVKGRFTISRDNAKNTVFLQMNSLKPEDTAVYFYAVVLGTSYRYTYWGQGTQVTVSS,low polyreactivity
12,QVQLVESGGGLVQAGGSLRLSCAASGSTFRVYAMGGDRQAPGKERELVAAITYSGGSTYYADSVKGRFTISRDNAKNTVYLQMNSLKPVDTAVYYCAADGYYGGYNYWGQGTQVTVSS,low polyreactivity
13,QVQLVESGGGLVQAGGSLRLSCAASGSIFWRNAMGWYRQAPGKERELVAAISGNGGTTYYADSVKGRFTISRDNAKNTVYLQMNSLKPEDTAVYYCAKVGKTYRTYEYWGQGTQVTVSS,high polyreactivity
14,QVQLVESGGGLVQAGGSLRLSCAATGIIFGTYAMGWYLQAPGTERELVAVISWRGGTYADSVKRRFTISRDNAKNTVYLQMNSLKPEDSAVYYCNARTWARLGSYWWIVDSWGQGTQVTVSS,high polyreactivity
15,QVQLVETGGGIVQAGGSLRLSFAASGFTSDYNAMGWYRQAPGKERELVAAISYSGGSTYYADSVKGRFTISRDNAKNTVYLQMNSLKPEDTAVYYCANGRYGRRYYYWGQGTQVTVSS,high polyreactivity
16,QVQLVESGGGLVQAGGSLRLSCAASGSIFPQNAMAWYRQAPGKERELVASISSGGRTNYADSVKGRFTISRDNAKNTVYLQMNSLKPEDTAVYYCNARYRGYYGPKTHGVTYYYWGQGTQVTVSS,low polyreactivity
17,QVQLVESGGGLVQVGGSLRLSCAASGRTFGRYAMGWYRQAPGKERELVAAINSVARTNYADSVKGRFTISRDNAKNTVYLHMNSLKPEDTAVYYCAARYYYSGVTHAKRIAYYYWGQGTQVTVSS,high polyreactivity
18,QVQLVESGGGLVQAGGSLRLSCAASGSTFLFYDMGWYRHAAGKERELVAAIRWSGGSTYADSVKGRFTISRDNAKNTVYLQMNSLKPVDTAVYYCATTYRPTFRRHYNYWGQGTQVTVSS,low polyreactivity
19,QVQLVESGGGLVQAGGSLRISCAASGSIFYENTMGWYRQAPGKEREFVAAISRSGGSTYYADSVKGRFTISRDNAKNTVYLQMNSLKPEDTAVYYCAARSRPGYAVYYWGQGTQVTVSS,high polyreactivity
20,QVQLVESGGGLFQAGGSLRLSCAASGIIFQSYDMAWYRQAPGKERELVAAISRGGGSTYYADSVKGRFTISRDNAKNTVYLQMNSLIPEDTAVYYCAADYRGEYDYWGQGTQVTVSS,low polyreactivity
21,QVQLVESGGGLVQAGGSLRLSCAASGSPFGFNAMGWYRQAPGKERELVAAISRSGTRTYYADSVKGRFTISRDNEKNTVYLQMNSQKPEDTAVYFCAADSTLSRYDYWGQGTQVTVSS,high polyreactivity
